Data taken from US20080050378A1 (ONCOTHERAPY SCIENCE, published 2008).

T1: EYFP-fused KIF11 (EYFP-KIF11) (human, UniProt P52732 1-1056)
T1 construct: Expressed in COS-7 cells; not shown: EYFP from pEYFP-N1 vector
T1 sequence: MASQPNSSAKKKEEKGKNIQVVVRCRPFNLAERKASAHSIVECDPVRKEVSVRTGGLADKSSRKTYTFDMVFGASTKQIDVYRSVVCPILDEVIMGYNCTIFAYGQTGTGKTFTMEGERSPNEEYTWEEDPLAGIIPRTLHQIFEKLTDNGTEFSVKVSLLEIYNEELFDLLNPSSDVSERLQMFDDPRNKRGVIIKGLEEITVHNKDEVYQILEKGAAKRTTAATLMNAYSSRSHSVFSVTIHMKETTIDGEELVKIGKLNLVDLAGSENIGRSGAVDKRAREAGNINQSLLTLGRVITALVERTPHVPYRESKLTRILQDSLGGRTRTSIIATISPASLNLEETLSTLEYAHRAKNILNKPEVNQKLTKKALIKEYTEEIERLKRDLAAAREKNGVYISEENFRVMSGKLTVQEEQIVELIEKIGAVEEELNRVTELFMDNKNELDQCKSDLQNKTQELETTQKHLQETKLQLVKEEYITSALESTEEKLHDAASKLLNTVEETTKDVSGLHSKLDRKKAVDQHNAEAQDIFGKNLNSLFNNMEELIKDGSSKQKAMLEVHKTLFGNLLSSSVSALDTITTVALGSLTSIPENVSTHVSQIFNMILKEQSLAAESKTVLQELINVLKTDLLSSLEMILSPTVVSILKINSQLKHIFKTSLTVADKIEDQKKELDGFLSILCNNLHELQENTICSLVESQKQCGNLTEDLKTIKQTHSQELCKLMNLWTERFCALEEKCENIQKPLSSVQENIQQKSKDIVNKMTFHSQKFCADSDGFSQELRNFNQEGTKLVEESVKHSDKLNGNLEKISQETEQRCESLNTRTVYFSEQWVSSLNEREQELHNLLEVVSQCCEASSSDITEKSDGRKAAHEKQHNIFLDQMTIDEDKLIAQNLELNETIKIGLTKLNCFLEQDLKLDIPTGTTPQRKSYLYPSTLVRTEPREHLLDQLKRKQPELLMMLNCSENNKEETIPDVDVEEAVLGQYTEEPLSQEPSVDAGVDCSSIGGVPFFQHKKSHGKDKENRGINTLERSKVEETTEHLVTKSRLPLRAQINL

B1: FLAG- and HA-tagged KOC1 (pCAGGS-n3FH-KOC1; NH2-terminal FLAG, COOH-terminal HA) (other)
chain: MNKLYIGNLSENAAPSDLESIFKDAKIPVSGPFLVKTGYAFVDCPDESWALKAIEALSGKIELHGKPIEVEHSVPKRQRIRKLQIRNIPPHLQWEVLDSLLVQYGVVESCEQVNTDSETAVVNVTYSSKDQARQALDKLNGFQLENFTLKVAYIPDEMAAQQNPLQQPRGRRGLGQRGSSRQGSPGSVSKQKPCDLPLRLLVPTQFVGAIIGKEGATIRNITKQTQSKIDVHRKENAGAAEKSITILSTPEGTSAACKSILEIMHKEAQDIKFTEEIPLKILAHNNFVGRLIGKEGRNLKKIEQDTDTKITISPLQELTLYNPERTITVKGNVETCAKAEEEIMKKIRESYENDIASMNLQAHLIPGLNLNALGLFPPTSGMPPPTSGPPSAMTPPYPQFEQSETETVHLFIPALSVGAIIGKQGQHIKQLSRFAGASIKIAPAEAPDAKVRMVIITGPPEAQFKAQGRIYGKIKEENFVSPKEEVKLEAHIRVPSFAAGRVIGKGGKTVNELQNLSSAEVVVPRDQTPDENDQVVVKITGHFYACQVAQRKIQEILTQVKQHQQQKALQSGPPQSRRK
notes: also called pCAGGS-FLAG-tagged-KOC1; full length KOC1 construct; not shown: N-terminal FLAG tag; C-terminal HA tag
B2: ECFP-fused KOC1 (ECFP-KOC1) (other)
chain: B1 chain
notes: Expressed in COS-7 cells; not shown: ECFP from pECFP-N1 vector
B3: KOC1DEL3 (KOC1 deletion mutant 3; 2xRRM without KH, N-terminal FLAG, C-terminal HA) (other)
chain: MNKLYIGNLSENAAPSDLESIFKDAKIPVSGPFLVKTGYAFVDCPDESWALKAIEALSGKIELHGKPIEVEHSVPKRQRIRKLQIRNIPPHLQWEVLDSLLVQYGVVESCEQVNTDSETAVVNVTYSSKDQARQALDKLNGFQLENFTLKVAYIPDEMAAQQNPLQQPRGRRGLGQRGSSRQGSPGSVSKQKPCDLP
notes: Contains the two RRMs and lacks the four KH domains; also called the RRM domains; not shown: N-terminal FLAG tag; C-terminal HA tag
B4: KOC1DEL2 (KOC1 deletion mutant 2; 2xRRM+2xKH, N-terminal FLAG, C-terminal HA) (other)
chain: MNKLYIGNLSENAAPSDLESIFKDAKIPVSGPFLVKTGYAFVDCPDESWALKAIEALSGKIELHGKPIEVEHSVPKRQRIRKLQIRNIPPHLQWEVLDSLLVQYGVVESCEQVNTDSETAVVNVTYSSKDQARQALDKLNGFQLENFTLKVAYIPDEMAAQQNPLQQPRGRRGLGQRGSSRQGSPGSVSKQKPCDLPLRLLVPTQFVGAIIGKEGATIRNITKQTQSKIDVHRKENAGAAEKSITILSTPEGTSAACKSILEIMHKEAQDIKFTEEIPLKILAHNNFVGRLIGKEGRNLKKIEQDTDTKITISPLQELTLYNPERTITVKGNVETCAKAEEEIMKKIRESYENDIASMNLQAHLIPGLNLNALGLFPPTSGMPPPTSGPPSAMTPPYPQFEQSETE
notes: Lacks the C-terminal two KH domains; not shown: N-terminal FLAG tag; C-terminal HA tag
B5: endogenous KIF11 (kinesin family member 11) (other)
chain: T1 sequence
notes: Endogenous protein in cell extracts; GenBank NM-004523 printed for the gene; also called EG5
B6: endogenous KOC1 (KH domain containing protein over-expressed in cancer) (other)
chain: B1 chain
notes: Endogenous protein in cell extracts; GenBank NM-006547 printed for the gene; also called IMP-3

Key:
[1] = biological target: B5; experiment: anti-Flag and anti-HA immunoprecipitation from transfected LC319 cells, silver stain, MALDI-TOF
Procedure: Cells were extracted in IP-buffer (0.5% NP-40, 50 mM Tris-HCl, 150 mM NaCl, and protease inhibitor) for 30 min on ice. Extracts were centrifuged at 14,000 rpm for 15 min, and supernatants were subjected to immunoprecipitation using anti-Flag M2 agarose (Sigma-Aldrich) and anti-HA beads (Sigma-Aldrich) for 1-2 hours. The beads were washed six times with IP-buffer, and protein was eluted by boiling the beads in Laemmli sample buffer after removing the final wash fraction. The eluted protein was resolved by SDS-PAGE and stained with silver staining. A 125 kDa-band was extracted by gel extraction, and used for mass spectrometric sequencing using MALDI-TOF mass spectrometry.

[2] = biological target: T1, EYFP-fused KIF11 (EYFP-KIF11); experiment: live-cell fluorescence microscopy of co-transfected COS-7 cells (co-localised particles)
[3] = biological target: B5; experiment: immunoprecipitation from transfected LC319 cells
[4] = biological target: B5; experiment: immunoprecipitation from transfected A549 cells
[5] = biological target: dynactin 1 (DCTN1; p150, glued homolog, Drosophila), endogenous (human, UniProt Q14203 1-1278, limits assumed); experiment: immunoprecipitation with anti-KIF11 polyclonal and anti-DCTN1 monoclonal antibody; 150-kDa partner first identified by MALDI-TOF from LC319 lysate
[6] = biological target: B5; experiment: reciprocal immunoprecipitation with anti-KOC1 and anti-KIF11 polyclonal antibodies, western blot

dynactin 1 (DCTN1; p150, glued homolog, Drosophila), endogenous, sequence (Q14203 whole entry): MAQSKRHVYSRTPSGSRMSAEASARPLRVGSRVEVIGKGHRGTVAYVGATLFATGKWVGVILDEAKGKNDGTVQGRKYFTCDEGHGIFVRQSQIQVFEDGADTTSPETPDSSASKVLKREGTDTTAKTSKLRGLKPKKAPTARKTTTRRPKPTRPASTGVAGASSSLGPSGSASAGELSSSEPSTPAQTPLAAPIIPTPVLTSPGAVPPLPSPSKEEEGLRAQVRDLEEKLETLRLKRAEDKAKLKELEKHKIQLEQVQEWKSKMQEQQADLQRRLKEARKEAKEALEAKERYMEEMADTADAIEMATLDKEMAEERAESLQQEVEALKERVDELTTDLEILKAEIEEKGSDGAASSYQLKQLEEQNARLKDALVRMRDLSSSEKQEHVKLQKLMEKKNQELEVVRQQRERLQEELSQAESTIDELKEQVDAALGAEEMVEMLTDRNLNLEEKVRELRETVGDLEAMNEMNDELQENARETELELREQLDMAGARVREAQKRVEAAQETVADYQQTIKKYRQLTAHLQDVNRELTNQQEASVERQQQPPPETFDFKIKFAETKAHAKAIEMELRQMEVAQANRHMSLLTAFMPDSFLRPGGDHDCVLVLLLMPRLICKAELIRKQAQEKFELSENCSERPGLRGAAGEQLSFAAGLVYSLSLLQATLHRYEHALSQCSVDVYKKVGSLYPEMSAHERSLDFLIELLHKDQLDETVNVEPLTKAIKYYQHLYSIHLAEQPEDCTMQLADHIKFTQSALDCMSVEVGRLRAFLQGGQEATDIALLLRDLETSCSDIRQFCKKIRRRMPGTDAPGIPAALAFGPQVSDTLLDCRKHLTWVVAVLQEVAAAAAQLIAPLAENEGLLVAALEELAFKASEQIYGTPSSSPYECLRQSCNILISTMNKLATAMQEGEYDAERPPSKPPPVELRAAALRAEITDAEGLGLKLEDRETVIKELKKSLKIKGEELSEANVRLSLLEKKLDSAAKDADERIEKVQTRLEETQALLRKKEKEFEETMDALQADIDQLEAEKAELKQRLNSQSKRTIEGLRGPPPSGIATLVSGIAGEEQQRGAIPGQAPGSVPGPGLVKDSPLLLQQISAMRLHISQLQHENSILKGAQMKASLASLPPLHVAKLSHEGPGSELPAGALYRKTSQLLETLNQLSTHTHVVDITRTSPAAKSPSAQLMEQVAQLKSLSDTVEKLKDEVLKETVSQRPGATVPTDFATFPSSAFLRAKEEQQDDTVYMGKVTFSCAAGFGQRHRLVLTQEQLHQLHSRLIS

Binder: B1
- binding result [1]: binds

Binder: B2
- binding result [2]: binds

Binder: B3
- binding result [3]: binds

Binder: B4
- binding result [4]: binds

Binder: B5
- binding result [5]: binds

Binder: B6
- binding result [6]: binds
